Assay results taken from IntAct's records for PubMed 35512704.

B1: Mothers against decapentaplegic homolog 4 (Homo sapiens), Q13485 (parent)
chain: MDNMSITNTPTSNDACLSIVHSLMCHRQGGESETFAKRAIESLVKKLKEKKDELDSLITAITTNGAHPSKCVTIQRTLDGRLQVAGRKGFPHVIYARLWRWPDLHKNELKHVKYCQYAFDLKCDSVCVNPYHYERVVSPGIDLSGLTLQSNAPSSMMVKDEYVHDFEGQPSLSTEGHSIQTIQHPPSNRASTETYSTPALLAPSESNATSTANFPNIPVASTSQPASILGGSHSEGLLQIASGPQPGQQQNGFTGQPATYHHNSTTTWTGSRTAPYTPNLPHHQNGHLQHHPPMPPHPGHYWPVHNELAFQPPISNHPAPEYWCSIAYFEMDVQVGETFKVPSSCPIVTVDGYVDPSGGDRFCLGQLSNVHRTEAIERARLHIGKGVQLECKGEGDVWVRCLSDHAVFVQSYYLDREAGRAPGDAVHKIYPSAYIKVFDLRQCHRQMQQQAATAQAAAAAQAAAVAGNIPGPGSVGGIAPAISLSAAAGIGVDDLRRLCILRMSFVKGWGPDYPRQSIKETPCWIEIHLHRALQLLDEVLHTMPIADPQPLD

Variants of: B1
Details: with smad3_human SMAD3, P84022
Sequence of smad3_human SMAD3, P84022 (P84022 whole entry, looked up): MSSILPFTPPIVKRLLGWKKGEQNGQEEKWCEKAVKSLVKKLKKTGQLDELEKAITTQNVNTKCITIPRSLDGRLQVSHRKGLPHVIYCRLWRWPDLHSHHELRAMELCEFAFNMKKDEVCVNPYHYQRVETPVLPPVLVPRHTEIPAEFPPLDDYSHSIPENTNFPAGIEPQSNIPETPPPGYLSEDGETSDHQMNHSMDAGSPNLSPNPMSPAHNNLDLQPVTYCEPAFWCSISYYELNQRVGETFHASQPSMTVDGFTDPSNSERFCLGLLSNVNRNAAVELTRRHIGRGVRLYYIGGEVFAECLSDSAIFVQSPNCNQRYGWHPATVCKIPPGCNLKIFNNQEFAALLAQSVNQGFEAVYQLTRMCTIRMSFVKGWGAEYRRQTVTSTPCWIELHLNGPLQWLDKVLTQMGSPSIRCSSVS

Variant	effect of a mutation on the interaction
D351H	disrupting interaction strength

Variants of: B1
Details: with agap2_human AGAP2, Q99490

Variant	effect of a mutation on the interaction
D351H	with no effect

Variants of: B1
Details: with ajuba_human AJUBA

Variant	effect of a mutation on the interaction
D351H	with no effect

Variants of: B1
Details: with akts1_human AKT1S1, Q96B36

Variant	effect of a mutation on the interaction
D351H	with no effect

Variants of: B1
Details: with akt2_human AKT2, P31751

Variant	effect of a mutation on the interaction
D351H	with no effect

Variants of: B1
Details: with alk_human ALK

Variant	effect of a mutation on the interaction
D351H	with no effect

Variants of: B1
Details: with aph1a_human APH1A

Variant	effect of a mutation on the interaction
D351H	with no effect

Variants of: B1
Details: with arnt_human ARNT

Variant	effect of a mutation on the interaction
D351H	with no effect

Variants of: B1
Details: with arc1a_human ARPC1A

Variant	effect of a mutation on the interaction
D351H	with no effect

Variants of: B1
Details: with asxl1_human ASXL1, Q8IXJ9

Variant	effect of a mutation on the interaction
D351H	with no effect

Variants of: B1
Details: with atpb_human ATP5F1B

Variant	effect of a mutation on the interaction
D351H	with no effect

Variants of: B1
Details: with aurkb_human AURKB

Variant	effect of a mutation on the interaction
D351H	with no effect

Variants of: B1
Details: with ufo_human AXL

Variant	effect of a mutation on the interaction
D351H	with no effect

Variants of: B1
Details: with za2g_human AZGP1, P25311

Variant	effect of a mutation on the interaction
D351H	with no effect

Variants of: B1
Details: with b2mg_human B2M

Variant	effect of a mutation on the interaction
D351H	with no effect

Variants of: B1
Details: with becn1_human BECN1, Q14457

Variant	effect of a mutation on the interaction
D351H	with no effect

Variants of: B1
Details: with birc2_human BIRC2, Q13490

Variant	effect of a mutation on the interaction
D351H	with no effect

Variants of: B1
Details: with braf_human BRAF

Variant	effect of a mutation on the interaction
D351H	with no effect

Variants of: B1
Details: with baba2_human BABAM2, Q9NXR7

Variant	effect of a mutation on the interaction
D351H	with no effect

Variants of: B1
Details: with btg1_human BTG1, P62324

Variant	effect of a mutation on the interaction
D351H	with no effect

Variants of: B1
Details: with cbl_human CBL

Variant	effect of a mutation on the interaction
D351H	with no effect

Variants of: B1
Details: with cblb_human CBLB

Variant	effect of a mutation on the interaction
D351H	with no effect

Variants of: B1
Details: with ccnd1_human CCND1, P24385

Variant	effect of a mutation on the interaction
D351H	with no effect

Variants of: B1
Details: with ccnd2_human CCND2, P30279
Sequence of ccnd2_human CCND2, P30279 (P30279 whole entry): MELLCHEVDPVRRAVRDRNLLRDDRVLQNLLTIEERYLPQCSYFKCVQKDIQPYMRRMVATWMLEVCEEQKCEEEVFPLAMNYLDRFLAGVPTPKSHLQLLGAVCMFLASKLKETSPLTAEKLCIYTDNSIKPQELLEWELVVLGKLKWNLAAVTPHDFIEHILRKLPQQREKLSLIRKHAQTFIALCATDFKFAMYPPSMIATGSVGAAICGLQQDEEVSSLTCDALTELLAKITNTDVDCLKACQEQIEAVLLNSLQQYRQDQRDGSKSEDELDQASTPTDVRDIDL

Variant	effect of a mutation on the interaction
D351H	with no effect

Variants of: B1
Details: with ccnd3_human CCND3, P30281

Variant	effect of a mutation on the interaction
D351H	with no effect

Variants of: B1
Details: with ccne1_human CCNE1, P24864
Sequence of ccne1_human CCNE1, P24864 (P24864 whole entry): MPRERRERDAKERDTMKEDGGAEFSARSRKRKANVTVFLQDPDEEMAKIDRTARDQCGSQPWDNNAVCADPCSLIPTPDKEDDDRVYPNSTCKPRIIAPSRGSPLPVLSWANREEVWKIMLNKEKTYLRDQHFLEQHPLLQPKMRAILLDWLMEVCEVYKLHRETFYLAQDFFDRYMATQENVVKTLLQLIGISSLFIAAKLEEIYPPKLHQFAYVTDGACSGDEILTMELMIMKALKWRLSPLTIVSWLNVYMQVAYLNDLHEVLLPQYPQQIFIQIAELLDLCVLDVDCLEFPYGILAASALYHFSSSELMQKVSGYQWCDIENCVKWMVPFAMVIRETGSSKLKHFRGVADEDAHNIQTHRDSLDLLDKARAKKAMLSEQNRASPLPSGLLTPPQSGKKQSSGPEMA

Variant	effect of a mutation on the interaction
D351H	with no effect

Variants of: B1
Details: with cd44_human CD44, P16070

Variant	effect of a mutation on the interaction
D351H	with no effect

Variants of: B1
Details: with cd79b_human CD79B

Variant	effect of a mutation on the interaction
D351H	with no effect

Variants of: B1
Details: with cdk4_human CDK4, P11802

Variant	effect of a mutation on the interaction
D351H	with no effect

Variants of: B1
Details: with cdn2b_human CDKN2B

Variant	effect of a mutation on the interaction
D351H	with no effect

Variants of: B1
Details: with cdn2c_human CDKN2C

Variant	effect of a mutation on the interaction
D351H	with no effect

Variants of: B1
Details: with cebpa_human CEBPA

Variant	effect of a mutation on the interaction
D351H	with no effect

Variants of: B1
Details: with chd1l_human CHD1L

Variant	effect of a mutation on the interaction
D351H	with no effect

Variants of: B1
Details: with chd2_human CHD2, O14647

Variant	effect of a mutation on the interaction
D351H	with no effect

Variants of: B1
Details: with ch3l1_human CHI3L1, P36222

Variant	effect of a mutation on the interaction
D351H	with no effect

Variants of: B1
Details: with csf1r_human CSF1R

Variant	effect of a mutation on the interaction
D351H	with no effect

Variants of: B1
Details: with ctna1_human CTNNA1, P35221

Variant	effect of a mutation on the interaction
D351H	with no effect

Variants of: B1
Details: with ctnb1_human CTNNB1, P35222
Sequence of ctnb1_human CTNNB1, P35222 (P35222 whole entry): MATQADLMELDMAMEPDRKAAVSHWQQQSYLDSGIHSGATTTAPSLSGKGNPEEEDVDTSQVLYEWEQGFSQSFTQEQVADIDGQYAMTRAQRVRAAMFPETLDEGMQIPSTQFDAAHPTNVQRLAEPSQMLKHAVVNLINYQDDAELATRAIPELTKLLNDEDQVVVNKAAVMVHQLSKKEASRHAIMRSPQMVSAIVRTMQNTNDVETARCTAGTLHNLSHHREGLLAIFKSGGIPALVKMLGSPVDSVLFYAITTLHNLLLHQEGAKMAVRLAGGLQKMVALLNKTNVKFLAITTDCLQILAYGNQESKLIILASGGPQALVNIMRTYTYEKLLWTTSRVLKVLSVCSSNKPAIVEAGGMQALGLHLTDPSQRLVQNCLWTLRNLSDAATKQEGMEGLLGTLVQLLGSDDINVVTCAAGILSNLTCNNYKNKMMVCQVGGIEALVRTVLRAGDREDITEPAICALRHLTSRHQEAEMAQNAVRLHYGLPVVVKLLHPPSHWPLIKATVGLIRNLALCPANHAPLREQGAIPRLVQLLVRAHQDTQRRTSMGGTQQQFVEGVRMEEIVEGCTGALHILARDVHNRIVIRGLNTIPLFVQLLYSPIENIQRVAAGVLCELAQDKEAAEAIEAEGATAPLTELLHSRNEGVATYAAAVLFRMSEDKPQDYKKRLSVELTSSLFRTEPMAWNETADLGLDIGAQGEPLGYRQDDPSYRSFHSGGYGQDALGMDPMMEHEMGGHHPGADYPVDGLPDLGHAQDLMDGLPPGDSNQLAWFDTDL

Variant	effect of a mutation on the interaction
D351H	with no effect

Variants of: B1
Details: with cul3_human CUL3, Q13618
Sequence of cul3_human CUL3, Q13618 (Q13618 whole entry): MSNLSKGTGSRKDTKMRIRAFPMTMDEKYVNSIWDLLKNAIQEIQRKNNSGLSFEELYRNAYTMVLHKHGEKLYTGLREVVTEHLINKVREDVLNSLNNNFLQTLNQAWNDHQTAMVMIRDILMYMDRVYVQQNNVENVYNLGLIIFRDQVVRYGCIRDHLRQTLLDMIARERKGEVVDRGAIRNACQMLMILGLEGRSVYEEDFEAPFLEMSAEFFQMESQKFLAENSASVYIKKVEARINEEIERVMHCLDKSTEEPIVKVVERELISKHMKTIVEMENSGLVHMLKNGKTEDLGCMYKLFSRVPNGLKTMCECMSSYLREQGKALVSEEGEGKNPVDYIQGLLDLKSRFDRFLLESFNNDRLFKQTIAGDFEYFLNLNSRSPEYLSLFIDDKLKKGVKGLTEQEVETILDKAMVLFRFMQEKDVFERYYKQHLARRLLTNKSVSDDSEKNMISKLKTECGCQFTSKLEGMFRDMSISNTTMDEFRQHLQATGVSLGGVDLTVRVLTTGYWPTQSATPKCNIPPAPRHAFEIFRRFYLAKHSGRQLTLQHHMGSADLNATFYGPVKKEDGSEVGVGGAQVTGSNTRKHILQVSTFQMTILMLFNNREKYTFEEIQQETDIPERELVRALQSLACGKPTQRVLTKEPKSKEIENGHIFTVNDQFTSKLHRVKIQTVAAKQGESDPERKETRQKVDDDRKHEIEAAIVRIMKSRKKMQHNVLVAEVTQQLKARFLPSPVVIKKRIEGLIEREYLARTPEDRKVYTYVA

Variant	effect of a mutation on the interaction
D351H	with no effect

Variants of: B1
Details: with dicer_human DICER1, Q9UPY3

Variant	effect of a mutation on the interaction
D351H	with no effect

Variants of: B1
Details: with duox2_human DUOX2, Q9NRD8

Variant	effect of a mutation on the interaction
D351H	with no effect

Variants of: B1
Details: with e2f1_human E2F1, Q01094

Variant	effect of a mutation on the interaction
D351H	with no effect

Variants of: B1
Details: with e2f2_human E2F2, Q14209

Variant	effect of a mutation on the interaction
D351H	with no effect

Variants of: B1
Details: with e2f3_human E2F3, O00716

Variant	effect of a mutation on the interaction
D351H	with no effect

Variants of: B1
Details: with e2f4_human E2F4, Q16254

Variant	effect of a mutation on the interaction
D351H	with no effect

Variants of: B1
Details: with e2f5_human E2F5, Q15329

Variant	effect of a mutation on the interaction
D351H	with no effect

Variants of: B1
Details: with if4e_human EIF4E

Variant	effect of a mutation on the interaction
D351H	with no effect

Variants of: B1
Details: with epha7_human EPHA7, Q15375

Variant	effect of a mutation on the interaction
D351H	with no effect

Variants of: B1
Details: with ephb1_human EPHB1, P54762

Variant	effect of a mutation on the interaction
D351H	with no effect

Variants of: B1
Details: with erbb3_human ERBB3, P21860

Variant	effect of a mutation on the interaction
D351H	with no effect

Variants of: B1
Details: with erbb4_human ERBB4, Q15303
Sequence of erbb4_human ERBB4, Q15303 (Q15303 whole entry): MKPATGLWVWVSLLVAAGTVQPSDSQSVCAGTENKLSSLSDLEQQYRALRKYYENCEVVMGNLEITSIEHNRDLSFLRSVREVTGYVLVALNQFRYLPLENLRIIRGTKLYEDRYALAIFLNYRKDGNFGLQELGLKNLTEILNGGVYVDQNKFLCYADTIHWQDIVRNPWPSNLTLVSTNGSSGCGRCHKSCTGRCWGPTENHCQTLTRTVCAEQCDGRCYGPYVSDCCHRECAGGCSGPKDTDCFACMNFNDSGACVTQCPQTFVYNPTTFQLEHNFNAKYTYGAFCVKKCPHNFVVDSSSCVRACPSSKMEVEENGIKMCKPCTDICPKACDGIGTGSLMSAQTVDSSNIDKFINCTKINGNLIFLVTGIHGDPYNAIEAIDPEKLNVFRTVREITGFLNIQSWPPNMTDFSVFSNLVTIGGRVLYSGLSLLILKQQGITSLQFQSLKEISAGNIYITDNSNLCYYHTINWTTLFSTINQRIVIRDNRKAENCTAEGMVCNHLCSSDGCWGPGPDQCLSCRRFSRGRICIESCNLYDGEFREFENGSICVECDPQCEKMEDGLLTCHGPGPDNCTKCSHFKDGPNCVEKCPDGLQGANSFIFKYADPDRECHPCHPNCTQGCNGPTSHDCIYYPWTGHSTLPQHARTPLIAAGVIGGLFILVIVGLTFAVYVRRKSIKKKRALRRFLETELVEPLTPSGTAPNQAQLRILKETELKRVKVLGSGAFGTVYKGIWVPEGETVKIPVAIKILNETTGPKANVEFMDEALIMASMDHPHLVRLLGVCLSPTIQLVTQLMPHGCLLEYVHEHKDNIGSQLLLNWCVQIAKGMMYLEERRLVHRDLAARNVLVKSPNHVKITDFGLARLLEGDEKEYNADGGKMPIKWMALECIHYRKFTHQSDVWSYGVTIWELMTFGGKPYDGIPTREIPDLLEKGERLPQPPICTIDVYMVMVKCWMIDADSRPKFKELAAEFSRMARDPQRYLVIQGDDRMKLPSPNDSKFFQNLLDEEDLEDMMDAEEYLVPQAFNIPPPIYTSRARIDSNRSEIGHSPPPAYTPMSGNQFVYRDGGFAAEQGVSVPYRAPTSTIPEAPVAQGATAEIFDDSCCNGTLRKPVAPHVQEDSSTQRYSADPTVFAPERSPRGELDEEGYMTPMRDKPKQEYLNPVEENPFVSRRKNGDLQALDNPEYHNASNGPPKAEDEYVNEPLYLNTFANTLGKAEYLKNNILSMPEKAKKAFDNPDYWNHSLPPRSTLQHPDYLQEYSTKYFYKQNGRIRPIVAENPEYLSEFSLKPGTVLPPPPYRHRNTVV

Variant	effect of a mutation on the interaction
D351H	with no effect

Variants of: B1
Details: with esr1_human ESR1, P03372

Variant	effect of a mutation on the interaction
D351H	with no effect

Variants of: B1
Details: with etv1_human ETV1, P50549

Variant	effect of a mutation on the interaction
D351H	with no effect

Variants of: B1
Details: with fadd_human FADD

Variant	effect of a mutation on the interaction
D351H	with no effect

Variants of: B1
Details: with facd2_human FANCD2, Q9BXW9

Variant	effect of a mutation on the interaction
D351H	with no effect

Variants of: B1
Details: with fgf19_human FGF19, O95750

Variant	effect of a mutation on the interaction
D351H	with no effect

Variants of: B1
Details: with fgfp1_human FGFBP1, Q14512

Variant	effect of a mutation on the interaction
D351H	with no effect

Variants of: B1
Details: with fgfr3_human FGFR3, P22607
Sequence of fgfr3_human FGFR3, P22607 (P22607 whole entry, looked up): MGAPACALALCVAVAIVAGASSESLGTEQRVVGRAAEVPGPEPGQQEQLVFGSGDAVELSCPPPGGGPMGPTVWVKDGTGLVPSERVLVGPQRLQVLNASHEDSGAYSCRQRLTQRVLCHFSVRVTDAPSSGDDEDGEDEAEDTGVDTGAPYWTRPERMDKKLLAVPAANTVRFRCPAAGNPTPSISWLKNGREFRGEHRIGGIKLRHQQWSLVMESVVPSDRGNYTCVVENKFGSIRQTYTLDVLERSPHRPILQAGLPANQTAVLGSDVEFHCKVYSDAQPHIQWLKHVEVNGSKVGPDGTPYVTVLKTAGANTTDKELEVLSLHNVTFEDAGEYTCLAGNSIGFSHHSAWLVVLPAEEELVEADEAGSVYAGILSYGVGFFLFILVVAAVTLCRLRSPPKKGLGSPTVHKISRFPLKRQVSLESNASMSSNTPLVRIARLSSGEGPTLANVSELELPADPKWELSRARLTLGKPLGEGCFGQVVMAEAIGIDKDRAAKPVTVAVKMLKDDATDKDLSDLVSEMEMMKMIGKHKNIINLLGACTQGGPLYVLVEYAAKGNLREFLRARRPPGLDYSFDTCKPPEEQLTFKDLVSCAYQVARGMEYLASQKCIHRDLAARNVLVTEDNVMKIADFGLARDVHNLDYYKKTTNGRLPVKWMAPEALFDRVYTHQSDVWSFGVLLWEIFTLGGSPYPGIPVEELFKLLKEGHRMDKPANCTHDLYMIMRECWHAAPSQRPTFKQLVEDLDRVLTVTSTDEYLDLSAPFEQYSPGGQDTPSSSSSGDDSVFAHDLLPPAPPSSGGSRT

Variant	effect of a mutation on the interaction
D351H	with no effect

Variants of: B1
Details: with fgfr4_human FGFR4, P22455

Variant	effect of a mutation on the interaction
D351H	with no effect

Variants of: B1
Details: with fumh_human FH

Variant	effect of a mutation on the interaction
D351H	with no effect

Variants of: B1
Details: with foxo1_human FOXO1, Q12778

Variant	effect of a mutation on the interaction
D351H	with no effect

Variants of: B1
Details: with foxo3_human FOXO3, O43524

Variant	effect of a mutation on the interaction
D351H	with no effect

Variants of: B1
Details: with gbra6_human GABRA6, Q16445

Variant	effect of a mutation on the interaction
D351H	with no effect

Variants of: B1
Details: with gata2_human GATA2, P23769

Variant	effect of a mutation on the interaction
D351H	with no effect

Variants of: B1
Details: with gata3_human GATA3, P23771

Variant	effect of a mutation on the interaction
D351H	with no effect

Variants of: B1
Details: with gna11_human GNA11, P29992

Variant	effect of a mutation on the interaction
D351H	with no effect

Variants of: B1
Details: with gna13_human GNA13, Q14344

Variant	effect of a mutation on the interaction
D351H	with no effect

Variants of: B1
Details: with gnaq_human GNAQ

Variant	effect of a mutation on the interaction
D351H	with no effect

Variants of: B1
Details: with grb7_human GRB7, Q14451

Variant	effect of a mutation on the interaction
D351H	with no effect

Variants of: B1
Details: with grm1_human GRM1, Q13255

Variant	effect of a mutation on the interaction
D351H	with no effect

Variants of: B1
Details: with grm3_human GRM3, Q14832

Variant	effect of a mutation on the interaction
D351H	with no effect

Variants of: B1
Details: with gsk3a_human GSK3A

Variant	effect of a mutation on the interaction
D351H	with no effect

Variants of: B1
Details: with hdac1_human HDAC1, Q13547

Variant	effect of a mutation on the interaction
D351H	with no effect

Variants of: B1
Details: with hdac3_human HDAC3, O15379

Variant	effect of a mutation on the interaction
D351H	with no effect

Variants of: B1
Details: with hgf_human HGF

Variant	effect of a mutation on the interaction
D351H	with no effect

Variants of: B1
Details: with h31_human H3C1, P68431

Variant	effect of a mutation on the interaction
D351H	with no effect

Variants of: B1
Details: with hlab_human HLA-B

Variant	effect of a mutation on the interaction
D351H	with no effect

Variants of: B1
Details: with rash_human HRAS

Variant	effect of a mutation on the interaction
D351H	with no effect

Variants of: B1
Details: with hs90a_human HSP90AA1, P07900

Variant	effect of a mutation on the interaction
D351H	with no effect

Variants of: B1
Details: with il7ra_human IL7R

Variant	effect of a mutation on the interaction
D351H	with no effect

Variants of: B1
Details: with irf6_human IRF6, O14896

Variant	effect of a mutation on the interaction
D351H	with no effect

Variants of: B1
Details: with irs1_human IRS1, P35568

Variant	effect of a mutation on the interaction
D351H	with no effect

Variants of: B1
Details: with jak1_human JAK1, P23458

Variant	effect of a mutation on the interaction
D351H	with no effect

Variants of: B1
Details: with kat2a_human KAT2A

Variant	effect of a mutation on the interaction
D351H	with no effect

Variants of: B1
Details: with kdm5c_human KDM5C

Variant	effect of a mutation on the interaction
D351H	with no effect

Variants of: B1
Details: with kdm6a_human KDM6A

Variant	effect of a mutation on the interaction
D351H	with no effect

Variants of: B1
Details: with vgfr2_human KDR

Variant	effect of a mutation on the interaction
D351H	with no effect
